Test results from patent US20150191517A1.
Where no end group is shown, it is not given here. [ ]: non-standard residue; d: D form.

Assays:
Assay in all cases: cell-based or functional assay
[1] = target: Nav1.2 (rBIIa) (rat (printed only as rBIIa)) (UniProt P04775)
[2] = target: Nav1.2 (rBIIa) (rat (printed only as rBIIa)), P04775
[3] = target: human Nav1.7 alpha-subunit (human), Q15858
[4] = target: human Nav1.7 alpha-subunit (human) (UniProt Q15858)
Chain of human Nav1.7 alpha-subunit (human) (Q15858 whole entry): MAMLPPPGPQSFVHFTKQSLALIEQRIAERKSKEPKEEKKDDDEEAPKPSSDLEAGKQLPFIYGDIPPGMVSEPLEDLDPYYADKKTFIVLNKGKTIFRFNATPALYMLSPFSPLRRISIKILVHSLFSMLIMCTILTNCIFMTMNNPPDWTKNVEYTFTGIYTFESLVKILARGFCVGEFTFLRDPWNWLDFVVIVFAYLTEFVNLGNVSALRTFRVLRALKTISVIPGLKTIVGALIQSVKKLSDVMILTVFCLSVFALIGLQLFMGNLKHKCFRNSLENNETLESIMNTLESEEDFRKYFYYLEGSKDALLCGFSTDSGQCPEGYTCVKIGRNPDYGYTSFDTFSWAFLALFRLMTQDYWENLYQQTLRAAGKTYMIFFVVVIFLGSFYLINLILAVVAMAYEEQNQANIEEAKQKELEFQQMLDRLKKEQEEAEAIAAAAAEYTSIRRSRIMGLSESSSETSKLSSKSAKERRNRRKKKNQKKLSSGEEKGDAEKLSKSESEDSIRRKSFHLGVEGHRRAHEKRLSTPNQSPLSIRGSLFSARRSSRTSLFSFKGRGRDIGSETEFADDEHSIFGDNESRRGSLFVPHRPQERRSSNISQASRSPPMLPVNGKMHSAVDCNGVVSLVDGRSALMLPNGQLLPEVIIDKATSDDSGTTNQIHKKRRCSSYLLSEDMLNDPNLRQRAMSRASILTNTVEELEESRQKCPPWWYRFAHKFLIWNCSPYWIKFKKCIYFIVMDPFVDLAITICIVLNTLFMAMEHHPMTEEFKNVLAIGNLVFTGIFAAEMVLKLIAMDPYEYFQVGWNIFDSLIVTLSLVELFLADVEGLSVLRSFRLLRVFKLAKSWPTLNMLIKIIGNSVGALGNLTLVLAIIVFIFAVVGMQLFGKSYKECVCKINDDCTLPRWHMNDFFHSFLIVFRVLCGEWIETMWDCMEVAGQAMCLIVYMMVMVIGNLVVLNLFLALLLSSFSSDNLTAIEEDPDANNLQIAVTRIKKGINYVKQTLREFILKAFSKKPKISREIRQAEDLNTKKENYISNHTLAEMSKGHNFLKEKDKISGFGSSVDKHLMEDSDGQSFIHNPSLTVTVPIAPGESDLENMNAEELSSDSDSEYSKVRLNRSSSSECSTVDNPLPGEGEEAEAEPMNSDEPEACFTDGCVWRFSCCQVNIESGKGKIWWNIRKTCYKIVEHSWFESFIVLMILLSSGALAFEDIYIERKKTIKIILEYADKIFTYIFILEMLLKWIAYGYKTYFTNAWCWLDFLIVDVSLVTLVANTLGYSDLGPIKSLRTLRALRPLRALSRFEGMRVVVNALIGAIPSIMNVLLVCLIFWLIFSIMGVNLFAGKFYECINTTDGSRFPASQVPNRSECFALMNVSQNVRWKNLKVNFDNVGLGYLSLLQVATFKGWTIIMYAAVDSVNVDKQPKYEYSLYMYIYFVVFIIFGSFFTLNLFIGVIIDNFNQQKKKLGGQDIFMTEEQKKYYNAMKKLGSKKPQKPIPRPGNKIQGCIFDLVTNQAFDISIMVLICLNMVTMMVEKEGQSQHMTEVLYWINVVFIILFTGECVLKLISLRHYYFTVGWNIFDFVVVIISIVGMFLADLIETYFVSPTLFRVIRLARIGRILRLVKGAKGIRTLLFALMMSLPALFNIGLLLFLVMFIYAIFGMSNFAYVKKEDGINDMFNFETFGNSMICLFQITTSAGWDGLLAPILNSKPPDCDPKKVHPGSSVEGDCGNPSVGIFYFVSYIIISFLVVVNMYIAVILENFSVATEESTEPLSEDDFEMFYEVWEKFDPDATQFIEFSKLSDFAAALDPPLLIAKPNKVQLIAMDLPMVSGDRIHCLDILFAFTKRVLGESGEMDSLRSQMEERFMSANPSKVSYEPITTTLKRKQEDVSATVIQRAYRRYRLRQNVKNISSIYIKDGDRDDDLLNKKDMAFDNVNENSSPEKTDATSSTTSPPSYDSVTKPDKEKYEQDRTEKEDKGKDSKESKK

Chain of Nav1.2 (rBIIa) (rat (printed only as rBIIa)) (P04775 whole entry): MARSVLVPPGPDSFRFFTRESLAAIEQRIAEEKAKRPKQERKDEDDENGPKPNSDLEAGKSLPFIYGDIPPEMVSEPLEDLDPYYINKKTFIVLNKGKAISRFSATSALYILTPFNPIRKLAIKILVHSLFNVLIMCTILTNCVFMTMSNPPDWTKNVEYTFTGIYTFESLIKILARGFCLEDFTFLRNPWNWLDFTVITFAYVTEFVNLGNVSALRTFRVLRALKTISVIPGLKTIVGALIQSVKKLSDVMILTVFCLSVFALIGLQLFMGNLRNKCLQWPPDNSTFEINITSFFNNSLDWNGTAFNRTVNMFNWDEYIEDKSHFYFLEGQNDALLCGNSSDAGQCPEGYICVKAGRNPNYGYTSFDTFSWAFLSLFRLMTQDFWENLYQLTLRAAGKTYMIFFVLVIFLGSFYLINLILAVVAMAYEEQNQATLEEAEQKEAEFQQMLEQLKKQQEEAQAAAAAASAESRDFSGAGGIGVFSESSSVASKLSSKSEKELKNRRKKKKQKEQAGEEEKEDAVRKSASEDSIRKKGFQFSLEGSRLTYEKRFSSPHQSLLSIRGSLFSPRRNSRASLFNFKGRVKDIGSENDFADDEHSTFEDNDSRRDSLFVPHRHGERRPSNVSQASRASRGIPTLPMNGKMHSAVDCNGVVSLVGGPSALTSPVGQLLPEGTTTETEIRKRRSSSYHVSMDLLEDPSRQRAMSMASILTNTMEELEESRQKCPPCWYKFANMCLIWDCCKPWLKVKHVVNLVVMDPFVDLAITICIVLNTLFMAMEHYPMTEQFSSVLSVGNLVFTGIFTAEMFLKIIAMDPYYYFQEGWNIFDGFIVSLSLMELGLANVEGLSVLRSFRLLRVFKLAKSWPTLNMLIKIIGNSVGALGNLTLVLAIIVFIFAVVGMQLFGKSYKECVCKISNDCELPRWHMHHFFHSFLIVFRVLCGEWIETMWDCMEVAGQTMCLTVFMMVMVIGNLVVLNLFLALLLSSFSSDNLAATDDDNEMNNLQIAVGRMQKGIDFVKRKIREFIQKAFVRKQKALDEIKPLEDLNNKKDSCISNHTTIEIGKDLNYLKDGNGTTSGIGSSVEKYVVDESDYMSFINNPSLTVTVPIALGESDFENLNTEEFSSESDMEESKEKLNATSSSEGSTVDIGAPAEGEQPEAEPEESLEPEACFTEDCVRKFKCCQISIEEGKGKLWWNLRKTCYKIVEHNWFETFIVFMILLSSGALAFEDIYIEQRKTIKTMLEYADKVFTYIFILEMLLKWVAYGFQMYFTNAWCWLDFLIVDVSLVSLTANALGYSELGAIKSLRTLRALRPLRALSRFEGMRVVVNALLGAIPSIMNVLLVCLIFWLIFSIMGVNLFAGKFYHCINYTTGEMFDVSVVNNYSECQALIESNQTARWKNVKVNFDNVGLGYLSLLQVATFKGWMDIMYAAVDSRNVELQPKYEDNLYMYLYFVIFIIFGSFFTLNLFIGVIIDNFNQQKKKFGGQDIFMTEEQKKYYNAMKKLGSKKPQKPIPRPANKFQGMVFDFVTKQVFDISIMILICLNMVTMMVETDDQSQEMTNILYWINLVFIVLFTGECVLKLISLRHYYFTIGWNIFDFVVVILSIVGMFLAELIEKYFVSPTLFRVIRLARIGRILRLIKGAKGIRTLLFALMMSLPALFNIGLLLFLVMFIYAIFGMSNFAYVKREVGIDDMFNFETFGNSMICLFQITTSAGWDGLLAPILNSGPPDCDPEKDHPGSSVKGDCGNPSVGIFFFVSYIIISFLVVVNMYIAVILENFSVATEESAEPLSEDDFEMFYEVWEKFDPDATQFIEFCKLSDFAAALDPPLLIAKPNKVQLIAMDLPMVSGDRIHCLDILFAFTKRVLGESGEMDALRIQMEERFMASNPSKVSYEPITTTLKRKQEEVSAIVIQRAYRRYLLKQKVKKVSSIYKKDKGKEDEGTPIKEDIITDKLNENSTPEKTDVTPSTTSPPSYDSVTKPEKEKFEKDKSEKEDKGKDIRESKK
Chain of Nav1.2 (rBIIa) (rat (printed only as rBIIa)), P04775 (P04775 whole entry): as above
Chain of human Nav1.7 alpha-subunit (human), Q15858 (Q15858 whole entry): as the sequence (Q15858 whole entry) above

Which Nav1.2 IC50 (nM), EP (electrophysiology) sodium channel blocking activity [1] does the source give for Protoxin II (peptide) here?
The Nav1.2 IC50 (nM), EP (electrophysiology) sodium channel blocking activity was 100 nM.

What about the Nav1.2 IC50 (nM), FLIPR sodium channel blocking activity [1] of the same molecule?
The Nav1.2 IC50 (nM), FLIPR sodium channel blocking activity was 379 nM.

How did the Nav1.2 IC50 (nM), FLIPR sodium channel blocking activity [2] turn out when YCQKWMWTCDSERKCCEGMVCRLWCKKKL[dW]-NHcyclohexyl (ends and bridges not checked) [Protoxin II (D)-NHcyclohexyl] was run?
Its Nav1.2 IC50 (nM), FLIPR sodium channel blocking activity is 336 nM.

What about the Nav1.7 IC50 (nM), FLIPR sodium channel blocking activity [3] of the same molecule?
Its Nav1.7 IC50 (nM), FLIPR sodium channel blocking activity is 31 nM.

For YCQKWMWTCDSERKCCEGMVCRLWCKKKLWW (not fully specified; ends and bridges not checked) [Protoxin II-D-Trp], which Nav1.2 IC50 (nM), FLIPR sodium channel blocking activity [1] is on record?
Its Nav1.2 IC50 (nM), FLIPR sodium channel blocking activity is 102 nM.

And the Nav1.7 IC50 (nM), FLIPR sodium channel blocking activity [4]?
Its Nav1.7 IC50 (nM), FLIPR sodium channel blocking activity is 16.5 nM.
